Assays:
[1] = tested on: RA synovial fibroblasts; experiment: Cytokine synthesis in RA synovial fibroblasts stimulated with tenascin-C, FBG or LPS; type: cell-based, human; settings: 24 h; LPS 10 ng/ml
Source text: RA membrane cells (representing a mixed population of all synovial cell types) were isolated from synovial membranes obtained from patients undergoing joint replacement surgery as previously described (Brennan (1989)). RA synovial fibroblasts were isolated from the mixed population of RA membrane cells as previously described (Brennan (1989)). The study was approved by the local Trust ethics committee (Riverside NHS Research Committee), and waste tissue (synovium after joint replacement surgery) was obtained only after receiving signed informed consent from the patient and anonymyzing the tissue to protect patient identity.
Immediately after isolation, RA membrane cells and macrophages were cultured at 1×10^5 cells/well in RPMI 1640 containing 10% (v/v) FBS and 100 U/ml (Units/ml) penicillin/streptomycin in 96-well tissue culture plates for 24 hours before stimulation. Synovial fibroblasts (used only at either passage number 2 or 3) were cultured at 1×10^4 cells/well in DMEM containing 10% (v/v) FBS and 100 U/ml penicillin/streptomycin in 96-well tissue culture plates for 24 hours before stimulation.
(§1) Cells were incubated for 24 hours at 37° C. with the indicated doses of tenascin-C and recombinant tenascin-C fragments (1.0 μM-1.0 nM). Cells were also stimulated where indicated with LPS (1 ng/ml for human macrophages, 10 ng/ml for human fibroblasts, RA membrane cells and HEKs, 100 ng/ml for MEFS and BMDMs and 10 ng/ml for HEKS), PAM3 (10 ng/ml for human macrophages, human fibroblasts, and HEKs, 100 ng/ml for MEFs and BMDMs), murine IL-1 (5 ng/ml for MEFS) and murine TNF-α (100 ng/ml for MEFS). Unless specifically stated otherwise rough LPS was used for in vitro studies.
Where stated, cells were pre-incubated with 10 μg/ml anti-CD14 antibody, 10 μg/ml IL1 receptor antagonist, 10 μg/ml anti-TLR2 antibody, 25 μg/ml anti-TLR4 antibody, 10 or 25 μg/ml isotype control antibody, 25 μg/ml polymyxin B, or 1 μg/ml msbB LPS, for 30 minutes at 37° C. before stimulation. Where stated, recombinant tenascin-C and FBG, and LPS were boiled for 15 minutes before addition to cells
(§2) Supernatants were subsequently examined for the presence of the cytokines TNF-α, IL-6, and IL-8 by enzyme-linked immunosorbent assay (ELISA) according to the manufacturer's instructions. Absorbance was read on a spectrophotometric ELISA plate reader (Labsystems Multiscan Biochromic, Vantaa, Finland) and analyzed using the Ascent software program (Thermo Labsystems, Altrincham, UK).

[2] = tested on: TLR2 or TLR4 deficient embryonic fibroblasts and bone marrow derived macrophages; experiment: Cytokine synthesis in embryonic fibroblasts and macrophages from TLR2 or TLR4 deficient mice; type: cell-based, mouse; settings: 24 h
Source text: (§3) Homozygous TLR2 and TLR4 deficient mice on a C57BL/6 background (an inbred strain of mice with a black coat) were obtained from B&K Universal (Hull, UK) Hoshino (1999) and Takeuchi (1999). Homozygous MyD88 deficient mice on a C57BL/6 background were provided by the Sanger Institute (Cambridge, UK). Age matched congenic inbred wild type C57B/L6 mice were obtained from Charles River (Margate, UK). For isolation of mouse embryo fibroblasts one female aged 8-10 weeks was mated with two males aged 8-10 weeks. For isolation of bone marrow derived macrophages mice were female and between 10-12 weeks of age at the time of experimentation.
MEFs express high levels of mRNA of all 9 murine TLRs and are specifically and highly responsive to TLR ligand activation. […] MEFs were isolated from d13 embryos harvested from age-matched, pregnant female wild type, TLR2, TLR4 and null mice (as described in Todaro (1963)). Fibroblasts were cultured at 2×10^4 cells/well in DMEM containing 10% (v/v) FBS and 100 U/ml penicillin/streptomycin in 96-well tissue culture plates for 24 hours before stimulation.
BMDMs were derived by aspirating the femurs of age matched female wild type, TLR2 and TLR4 null mice as described in Butler (1999)) and culturing the cells for 7 days in DMEM, 20% (v/v) FBS, 10 ml/L (v/v) antibiotic-antimycotic solution PSA, 50 μM Mercaptoethanol and 10 ng/ml M-CSF. Macrophages were then cultured at 1×10^5 cells/well in DMEM, 20% (v/v) FBS, 10 ml/L (v/v) antibiotic-antimycotic solution PSA, 50 μM β-Mercaptoethanol in 96-well tissue culture plates for 24 hours before stimulation.
as §1, §2

[3] = tested on: knee joint of TLR2 and TLR4 null mice; experiment: Intra-articular injection of FBG in TLR2 and TLR4 null mice; type: in vivo; settings: 1 μg FBG intra-articular, 3 days
Source text: as §3
Wild type mice were anesthetized by intraperitoneal injection of 150 μl of Hypnorm diluted 1:10 in sterile water and then injected with 100 ng, 1 or 3 μg FBG in 10 μl of sterile PBS into the right knee joint using a sterile 33-gauge microcannula. Control mice received an injection of 10 μl PBS alone or were not injected.
On days 3 and 7, mice were euthanized, the knee joints were excised and fixed in 10% (volume/volume) buffered formalin, decalcified, with 10% EDTA and processed to paraffin.
Coronal tissue sections (4 μm) were cut at 7 depths throughout the joint; 80 μm apart and stained with hematoxylin and eosin or Safranin-O to assess joint pathology. Histopathologic changes were scored using the following parameters as described in Van Lent (2006). […]

B1: FBG: recombinant fibrinogen-like globe, 227 amino acid globular domain at the C terminal of tenascin-C (protein)
chain: GLLYPFPKDCSQAMLNGDTTSGLYTIYLNGDKAEALEVFCDMTSDGGGWIVFLRRKNGRENFYQNWKAYAAGFGDRREEFWLGLDNLNKITAQGQYELRVDLRDHGETAFAVYDKFSVGDAKTRYKLKVEGYSGTAGDSMAYHNGRSFSTFDKDTDSAITNCALSYKGAFWYRNCHRVNLMGRYGDNNHSQGVNWFHWKGHEHSIQFAEMKLRPSNFRNLEGRRKRA
IL-6 synthesis in RA synovial fibroblasts [1]: stimulated | IL-8 synthesis in RA synovial fibroblasts [1]: did not induce | cytokine synthesis in cells from TLR2 deficient mice [2]: unaffected | cytokine synthesis in cells from TLR4 deficient mice [2]: does not stimulate | joint inflammation in TLR2 null mice [3]: able to induce

Source: patent US20200362024A1, “BIOLOGICAL MATERIALS AND USES THEREOF” (IMPERIAL INNOVATIONS LIMITED, priority 2009, published 2020)
